Measurements taken from US11725220B1, “Production of fusel lactates via biocatalysis” (National Technology & Engineering Solutions of Sandia, LLC, priority 2020, dated 2023).

How the values were obtained:
[1] = 25° C.; cited from earlier work
[2] = Kinetics reaction assay, pNPA to pNP, Michaelis-Menten model (Example Set 2); format: biochemical; details: for specificity constant, comparison in words: FIG. 15; for vmax × 10^−6 / Km: pNPA to pNP, cell lysate 50 μg/ml protein, optimal temperature and pH of each enzyme; for Km: read-out: km × 10^−6; for kcat: turnover number, all protein detected by Bradford's reagent assumed to be the enzyme
Source text: (§1) Esterase activity is used to indirectly measure the esterification activity required for enzymes to produce ethyl lactate. Cleavage of the ester bond in 4-nitrophenyl acetate (pNPA) to form 4-nitrophenol (pNP) and acetic acid is used to determine the esterase activity of the enzymes. The Km and Vmax values, found by applying the Michaelis-Menten kinetics model to experimental data found at optimal pH and temperature conditions, are used to evaluate enzymatic activity. As disclosed herein, hydrolysis of the ester bond in pNPA was used to estimate the esterification activity of the enzymes.
Enzymatic activity can be characterized by calculating kinetic parameters for the enzymes considered. To calculate kinetic parameters for an enzyme, a kinetic model must be applied to the data.
In this form, only the initial reaction rate and substrate concentrations are considered—with the initial reaction rate being the average change in product concentration between the reaction initiation and the first subsequent reading. Plotting the inverse of v0 against the inverse of [S0] results in what is known as a Lineweaver-Burk plot. An example of a Lineweaver-Burk plot is seen in FIG. 2.
A linear regression of the data in such plots follows the linearized Michaelis-Menten equations. The y-intercept of the Lineweaver-Burk plot is the inverse of vmax; the slope multiplied by vmax gives the value of the km parameter. This is summarized in Equation 4: […]
Therefore, the kinetic parameters of an enzyme can be determined through the parameters obtained through a linear regression applied to linearized kinetics data. Once vmax and km are determined, they can be used to calculate the turnover number and the specificity constant. This approach utilizes experiments being performed with varying initial substrate concentrations while holding all other parameters constant.
(§2) This work involved two separate sets of examples (Generally, Example Set 1 and Example Set 2). Example Set 1 set was performed to determine the optimum temperature and pH conditions for each enzyme to catalyze the pNPA reaction. Three temperatures (22, 30, 37° C.) and three pH conditions (pH of 6, 7, 8) were tested. The temperature and pH condition which led to the highest product concentration were selected as the conditions to be used for each enzyme in Example set 2. The second set of examples was a kinetics reaction assay where reaction progress was measured at five time points (0, 15, 30, 60, 120) for six different initial pNPA concentrations (0, 25, 50, 100, 150, 200 μM).
In Example Set 2, a kinetics reaction assay was performed on the enzymes from Table 1. […] That enzymatic activity was tested for at the ideal temperature and pH conditions determined in the optimization experiment.
One deviation from the common protocols for Example Set 2 was that cell pellets had been stored in −80° C. for seven days instead of the usual 24 hours. In addition, the lysing process included more vigorous agitation.
To determine the kinetic activity for each enzyme, substrate concentration was varied and measured at different time points. In addition to testing each enzyme, a wild type E. coli PET control (see Table 1) was run at its optimal conditions. A blank containing pNPA but no enzyme was also included for each of the temperature pH combinations to be tested.
Initial pNPA concentrations were tested at 0, 25, 50, 100, 150, 200 μM. Measurements were made at 0, 15, 30, 60, and 120 minutes.
The phosphate buffer was of pH 6, 7, or 8 as determined to be best from Example Set 1. Stock solutions of pNPA were made in different concentrations such that adding 20 μl to the reaction would result in the corresponding final pNPA concentration (either 25, 50, 100, 150, or 200 μM). Cell lysate was diluted to concentrations of 250 μg/m to allow for uniformity in the volume of lysate added to each reaction. Instead of diluted lysate, each blank received an extra 200 μl of phosphate buffer. […]

[3] = Temperature and pH optimisation, pNPA reaction assay (Example Set 1); format: biochemical; details: tested 22, 30, 37 °C; pH 6, 7, 8; 100 μM pNPA
Source text: as §1, §2
Example Set 1 had the objective of determining the optimum temperature and pH conditions at which to run experiments for enzymatic activity characterization. As such, temperature and pH were the only conditions that varied in this experiment. Both were tested at three different levels which were similar to normal cell conditions: 22, 30 and 37° C. for temperature and 6, 7, and 8 for pH.
These were tested for all 8 enzymes from Table 1, as well as the wild type control, and a blank containing no enzyme.
The phosphate buffer was of 6, 7, or 8 pH, respectively. Lysate for each enzyme was diluted down to 250 μg/ml to facilitate ease of addition—each blank received an extra 100 μl of phosphate buffer instead of diluted cell lysate. The enzymatic component was added last and was the catalyst to initialize the reaction. The reactions were performed in three deep 96-well plates each of which was incubated at one of the temperature conditions. Agitation was provided by incubators shaking at 230 RPM.
Readings were made at 30 and 60 minutes following the initialization of the reaction. To make a reading, 200 μl of the reaction volume were transferred from the deep well plates to standard 96-well plates. The pNP product of the pNPA reaction assays is detected through Absorbance at a wavelength of 410 nm.
A curve was generated to convert from absorbances to pNP concentration. The relationship between a colored chemical and its absorbance is usually linear and can be used to convert absorbance values into chemical concentrations. To know how much pNP was being detected through absorbance, it was necessary to create a standard curve to obtain values for the relationship between the concentration of pNP and the absorbance of pNP. Creating a standard curve involved creating samples of different pNP concentrations. For the pNP to give color, it needed to be ionized. Accordingly, pNP was ionized in the presence of NaOH at a concentration of 0.4 g/ml. A standard curve was created by taking the absorbance of pNP at various known concentrations. […] As also seen in FIG. 5, the data (solid line) closely follows a linear pattern over the concentration range being tested for pNP. The R2 value for the linear regression is 0.9939. The formula for converting from absorbance to pNP, derived from that linear regression, is seen in Equation A1: [pNP]=(Abs+0.0244)/25.929 [A1]

[4] = test system: E. coli BL21-DE3; experiment: In vivo production of esters by engineered E. coli, culture supernatants by GC-MS (Example Set 3); format: cell-based; details: culture supernatant, M9 medium, 1 mM IPTG
Source text: E. coli cells were engineered through two step cloning. First, the cells (E. coli BL21-DE3, a commercially available genetic transformation-ready strain) were cloned with esterase or transferase enzymes using pET15b plasmid at NdeI/BamHI locus in the vector.
Specifically, plasmids were constructed (PT7::RBS:Gene*::PT7::RBS:pct::RBS:ldh in pET15b) and cloned in E. coli BL21-DE3 with ethanol producing plasmid (pACYDuet-Zm-pdc-Zm-adh). Cells were cultivated with high-cell density in M9 medium and induced with 1 mM IPTG.
Culture supernatants were analyzed through HPLC (for ethanol and lactate) and GC-MS (for esters). Esterase-A yielded highest ethyl lactate (3.5±1.5 mg/L) and ethyl acetate (16±8 mg/L).
FIGS. 18 and 19 show a GC-MS analysis of culture supernatants (collected after 22 h and 46 h of incubation) of mutants extracted with chloroform.

| Molecule | vapor pressure [1] [mm Hg] | specificity constant, comparison in words [2] | vmax × 10^−6 [2] | Km [2] [µM] | kcat [2] [s⁻¹] | Temperature giving 2nd highest conversion of pNPA to pNP [3] [°C] | Temperature giving highest conversion of pNPA to pNP [3] [°C] | pH giving 2nd highest conversion of pNPA to pNP [3] | pH giving highest conversion of pNPA to pNP [3] | ethyl acetate yielded [4] [mg/L] | ethyl lactate yielded [4] [mg/L] |
| --- | --- | --- | --- | --- | --- | --- | --- | --- | --- | --- | --- |
| CCOC(=O)C(C)O (stereo not drawn) [ethyl lactate] | 3.75 |  |  |  |  |  |  |  |  |  |  |
| Cc1ccccc1 [toluene] | 28.4 |  |  |  |  |  |  |  |  |  |  |
| xylene | 8.84 |  |  |  |  |  |  |  |  |  |  |
| EEB1: esterase from Saccharomyces cerevisiae, expressed in BL21 E. coli, used as cell lysate (protein, UniProt Q02891 1-456, looked up, cell lysate) Medium-chain fatty acid ethyl …: MFRSGYYPTVTPSHWGYNGTVKHVLGEKGTKSLAFRDSKRQIPLHEFVTKHVPTLKDGANFRLNSLLFTGYLQTLYLSAGDFSKKFQVFYGREIIKFSDGGVCTADWVMPEWEQTYSLNAEKASFNEKQFSNDEKATHPKGWPRLHPRTRYLSSEELEKCHSKGYSYPLVVVLHGLAGGSHEPLIRALSEDLSKVGDGKFQVVVLNARGCSRSKVTTRRIFTALHTGDVREFLNHQKALFPQRKIYAVGTSFGAAMLTNYLGEEGDNCPLNAAVALSNPWDFVHTWDKLAHDWWSNHIFSRTLTQFLTRTVKVNMNELQVPENFEVSHKPTVEKPVFYTYTRENLEKAEKFTDILEFDNLFTAPSMGLPDGLTYYRKASSINRLPNIKIPTLIINATDDPVTGENVIPYKQARENPCVLLCETDLGGHLAYLDNESNSWLTKQAAEFLGSFDELVL |  | top performing enzymes | 1.34 ± 0.26 × 10^−6 molL^−1s^−1 | 3.9 ± 0.74 | 1.39 ± 0.26 | 30 | 22 | 8 | 7 |  |  |
| EstA: esterase from Pseudomonas aeruginosa, expressed in BL21 E. coli (protein, UniProt O33407 25-646, looked up) Esterase EstA: APSPYSTLVVFGDSLSDAGQFPDPAGPAGSTSRFTNRVGPTYQNGSGEIFGPTAPMLLGNQLGIAPGDLAASTSPVNAQQGIADGNNWAVGGYRTDQIYDSITAANGSLIERDNTLLRSRDGYLVDRARQGLGADPNALYYITGGGNDFLQGRILNDVQAQQAAGRLVDSVQALQQAGARYIVVWLLPDLGLTPATFGGPLQPFASQLSGTFNAELTAQLSQAGANVIPLNIPLLLKEGMANPASFGLAADQNLIGTCFSGNGCTMNPTYGINGSTPDPSKLLFNDSVHPTITGQRLIADYTYSLLSAPWELTLLPEMAHGTLRAYQDELRSQWQADWENWQNVGQWRGFVGGGGQRLDFDSQDSAASGDGNGYNLTLGGSYRIDEAWRAGVAAGFYRQKLEAGAKDSDYRMNSYMASAFVQYQENRWWADAALTGGYLDYDDLKRKFALGGGERSEKGDTNGHLWAFSARLGYDIAQQADSPWHLSPFVSADYARVEVDGYSEKGASATALDYDDQKRSSKRLGAGLQGKYAFGSDTQLFAEYAHEREYEDDTQDLTMSLNSLPGNRFTLEGYTPQDHLNRVSLGFSQKLAPELSLRGGYNWRKGEDDTQQSVSLALSLDF |  | top performing enzymes | 1.09 ± 0.05 × 10^−6 molL^−1s^−1 | 4.89 ± 1.16 | 1.52 ± 0.36 | 37 | 22 | 8 | 7 | 16 ± 8 | 3.5 ± 1.5 |
